One block for each substance: values may come before it.
What was measured:
[1] = biological target: Sgo1_(1–155) (human) (UniProt Q5FBB7); assay: ITC; Survivin or CPC (monomer concentration) injected into Sgo1 constructs, 20°C; 50 mM Hepes pH 8, 150 mM NaCl, 5% glycerol, 1 mM TCEP; standard 1:1 binding model
[2] = biological target: Sgo1_(1–415) (human) (UniProt Q5FBB7); assay: as above
[3] = biological target: Sgo1_(1–130) (human) (UniProt Q5FBB7); assay: as above
[4] = biological target: Sgo1_(1–415) (human) (UniProt Q5FBB7); assay: mass photometry; samples cross-linked with 0.01% glutaraldehyde 5 min at 4°C, quenched with Tris; 20 nM measured in 25 mM Hepes pH 8, 250 mM NaCl, 2 mM DTT
[5] = biological target: Sgo1_(1–415) (human) (UniProt Q5FBB7); assay: ITC; 100 μM CPC injected into 10 μM Sgo1 1-415 or 1-415 4A, 20°C; 50 mM Hepes pH 8, 250 mM NaCl, 5% glycerol, 1 mM TCEP, 0.005% Tween; standard 1:1 binding model
[6] = biological target: Sgo1_(1–415 4A) (human) (UniProt Q5FBB7); assay: as above
[7] = biological target: Aurora B (endogenous) (UniProt Q96GD4); assay: LacO-LacI tethering assay, immunofluorescence in U-2 OS-LacO Haspin CM cells; details: n = 17 (parent), red bar = mean, parent: est. 3.5, read off a plot
[8] = biological target: Borealin (endogenous) (UniProt Q53HL2); assay: as above; details: n = 22 (parent), red bar = mean, parent: est. 1.5, read off a plot

Chain of Aurora B (endogenous) (Q96GD4 whole entry): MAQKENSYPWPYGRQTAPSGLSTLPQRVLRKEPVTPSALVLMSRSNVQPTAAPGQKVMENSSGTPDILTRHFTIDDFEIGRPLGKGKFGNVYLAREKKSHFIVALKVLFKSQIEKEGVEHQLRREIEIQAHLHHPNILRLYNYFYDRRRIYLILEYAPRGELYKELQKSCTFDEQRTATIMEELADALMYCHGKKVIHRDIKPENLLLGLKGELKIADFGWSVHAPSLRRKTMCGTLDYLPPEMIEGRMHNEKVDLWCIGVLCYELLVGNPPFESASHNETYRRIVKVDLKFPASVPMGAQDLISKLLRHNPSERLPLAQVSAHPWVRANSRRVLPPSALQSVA

Substance: CPC_(ISB10–280 H80A) (from UniProt Q9NQS7 1-58; O15392 1-142; Q53HL2 10-280) (complex)
Kd [1]: 112 nM

Substance: CPC_(ISB10–280) (INCENP_(1–58), Survivin full length, Borealin_(10–280)) (from UniProt Q9NQS7 1-58; O15392 1-142; Q53HL2 10-280) (complex)
Kd [2]: 52.8 nM
dH [2]: -6.58 kcal/mol
stoichiometry N [2]: 1
Kd [1]: 71.2 nM
Kd [3]: 57.4 nM
stoichiometry N [4]: 1 ratio (2:2)
Kd [5]: 151 nM
Kd [6]: 112 nM

Substance: Survivin_(1–116) (from UniProt O15392 1-116) (domain or fragment)
Kd [1]: 408 nM

stoichiometry N [4]: 2
Substance: Sgo1_(1–415) (from UniProt Q5FBB7 1-415) (domain or fragment)

Substance: CPC_(ISB10–221) (INCENP_(1–58), Survivin, Borealin_(10–221)) (from UniProt Q9NQS7 1-58; O15392 1-142; Q53HL2 10-221) (complex)
Kd [3]: 163 nM

Substance: Survivin full length (from UniProt O15392 1-142) (natural protein)
Kd [1]: 240 nM
Kd [3]: 255 nM

response ([7]; n = 19 (mutant)): 1.6 a.u.
Substance: Sgo1_(1–527)-LacI-GFP V188A; S189A; V190A; R191A

Substance: CPC_(ISB10–280 K62A) (from UniProt Q9NQS7 1-58; O15392 1-142; Q53HL2 10-280) (complex)
Kd [1]: 42.4 nM

response ([8]; n = 23 (mutant)): 0.6 a.u.
response ([7]; n = 14 (mutant)): 2.3 a.u.
Substance: Sgo1_(1–527)-LacI-GFP Nmut

response ([8]; n = 22 (mutant)): 0.28 a.u.
response ([7]; n = 22 (mutant)): 0.4 a.u.
Substance: Sgo1_(1–527)-LacI-GFP Nmut; V188A; S189A; V190A; R191A

Source: PMC9253516
